Results taken from patent US20230399417A1 (Genentech, published 2023).
No end group written: not given here.

Assays:
[1] = molecular target: T1, mouse IL-1β peptide 21LFFEVD26 (mouse); test: X-ray co-crystal structure
T1 construct: Liberated C-terminus of the noncanonical cleavage site, with free C-terminal Asp
T1 peptide: LFFEVD-OH

IL-18 peptide 30GDLESD35 = molecular target: T2, IL-18 peptide 30GDLESD35; test: X-ray co-crystal structure
T2 construct: Liberated C-terminus of IL-18, with free C-terminal Asp
T2 peptide: GDLESD

Binder	binding result [1]	binding result (IL-18 peptide 30GDLESD35)
CJ11 Fab (Fab, V domains shown, also called its Fab) VH: QSVEESGGGLVTPGTPLTLTCTVSGIDLSRYAMSWVRQAPGKGLEWIGIFGSLGGIFYASWAKGRFTISKTSPTTVDLKITSPTTEDTATYFCARMPYTTDRDFWGPGTLVTVSS VL: DIVMTQTPSSTSAAVGGTVTITCQASQSVANNNYLKWYQQKRGQPPKQLIYSVSTLASGVPSRFKGSGSGTQFTLTISDLECDDAATYYCSGYFNNNIGAFGGGTKLEIK	binds	
CJ11 Fab modified by reductive lysine methylation (Fab, V domains shown, lysines modified by reductive methylation) VH: QSVEESGGGLVTPGTPLTLTCTVSGIDLSRYAMSWVRQAPGKGLEWIGIFGSLGGIFYASWAKGRFTISKTSPTTVDLKITSPTTEDTATYFCARMPYTTDRDFWGPGTLVTVSS VL: DIVMTQTPSSTSAAVGGTVTITCQASQSVANNNYLKWYQQKRGQPPKQLIYSVSTLASGVPSRFKGSGSGTQFTLTISDLECDDAATYYCSGYFNNNIGAFGGGTKLEIK		binds
